# Test results from the DeepSol protein solubility set.
# Experiment: soluble on expression in E. coli; label from the status in PepcDB or PDB records
row,Sequence,soluble on expression in E. coli
1,MKSFLVAGCTSDAGKSVVVAGLCRALTRRGLRVAPFKAQNMSNNSAVTPDGGEIGRAQALQAYACGLTPSVDFNPILLKPGSDRTSQLVVRGIATGNVSARSYIEHRTELRKIASESLNSLRERFDVVVCEGAGSPAETNLRATDVANFGLAEECDLPVYIVGDIDRGGVLAHFYGTHQIVDDADRARIKGFVVNKFRGDVSILEPGLQDLEDRLGVPTVAVLPFIHGLWIDAEDSLQSTIGATVGPAAAPLGTQRLRVAAIRLPRVSNATDVEALACEPGVTVTWTVDPDSVAEADLVVIPGSKATLSDLAWLRSTGVADAIMERARSQRPILGICGGFQMMCSHIDDPVESGSTTPVEGLGIFDVDIEFHPEKTLIRHENGGYEVHHGRVERSTEQPWIGNEGARTQSNFGTHRHGYLEDDEARRDFLGTVSTLAQRPGFVVAPATSFEAERNKQLDVIADAIEQHWDLDQLIAALT,not soluble
2,MGKALVIVESPAKAKTINKYLGSDYVVKSSVGHIRDLPTSGSAAKKSADSTSTKTAKKPKKDERGALVNRMGVDPWHNWEAHYEVLPGKEKVVSELKQLAEKADHIYLATDLDREGEAIAWHLREVIGGDDARYSRVVFNEITKNAIRQAFNKPGELNIDRVNAQQARRFMDRVVGYMVSPLLWKKIARGLSAGRVQSVAVRLVVEREREIKAFVPEEFWEVDASTTTPSGEALALQVTHQNDKPFRPVNKEQTQAAVSLLEKARYSVLEREDKPTTSKPGAPFITSTLQQAASTRLGFGVKKTMMMAQRLYEAGYITYMRTDSTNLSQDAVNMVRGYISDNFGKKYLPESPNQYASKENSQEAHEAIRPSDVNVMAESLKDMEADAQKLYQLIWRQFVACQMTPAKYDSTTLTVGAGDFRLKARGRILRFDGWTKVMPALRKGDEDRILPAVNKGDALTLVELTPAQHFTKPPARFSEASLVKELEKRGIGRPSTYASIISTIQDRGYVRVENRRFYAEKMGEIVTDRLEENFRELMNYDFTAQMENSLDQVANHEAEWKAVLDHFFSDFTQQLDKAEKDPEEGGMRPNQMVLTSIDCPTCGRKMGIRTASTGVFLGCSGYALPPKERCKTTINLVPENEVLNVLEGEDAETNALRAKRRCPKCGTAMDSYLIDPKRKLHVCGNNPTCDGYEIEEGEFRIKGYDGPIVECEKCGSEMHLKMGRFGKYMACTNEECKNTRKILRNGEVAPPKEDPVPLPELPCEKSDAYFVLRDGAAGVFLAANTFPKSRETRAPLVEELYRFRDRLPEKLRYLADAPQQDPEGNKTMVRFSRKTKQQYVSSEKDGKATGWSAFYVDGKWVEGKK,soluble
3,MARSQLSAAGEQHVIQLNQQGGKNLFCFPPISGFGIYFKDLALQLNHKAAVYGFHFIEEDSRIEQYVSRITEIQPEGPYVLLGYSAGGNLAFEVVQAMEQKGLEVSDFIIVDAYKKDQSITADTENDDSAAYLPEAVRETVMQKKRCYQEYWAQLINEGRIKSNIHFIEAGIQTETSGAMVLQKWQDAAEEGYAEYTGYGAHKDMLEGEFAEKNANIILNILDKINSDQKVLPNKHGSHHHHHH,soluble
4,MGSDKIHHHHHHMIYIGLPQWSHPKWVRLGITSLEEYARHFNCVEGNTTLYALPKPEIVARWYEQTHDDFRFCFKFPATISHQAALRHCDELSSEFFARLAPLASRIGQYWLQLPATFGPRDLPALWHFLDGLPKDFTYGVEVRHPEFFAKEEAEQQLNRGLHERNVNRVILDSRPVHSAAATSPAMIDAQQKKPKVPVHAVMTARQPMVRFIGGDDMAHNRELFRVWLQTLAKWHQSGTPWLFLHTPDIAFAPALVDTLWGDLRAALPAAGNAPSIPQQSSLF,not soluble
5,MDKQSLHETAKRLALELPFVELCWPFGPEFDVFKIGGKIFMLSSELRGVPFINLKSDPQKSLLNQQIYPSIKPGYHMNKKHWISVYSGEEISEALLRDLINDSWNLVVDGLAKRDQKRVRPG,not soluble
6,MAKLDKKVYERELELLQIELVKLQEWVKQEKLKLVVIFEGRDAAGKGGVIKTITEKLNPRVCRVAALPAPTEKEKTQWYFQRYVAHLPAGGEIVLFDRSWYNRAGVEKVMGFCSDEEYQEFLRSCPEFERMLQRSGIILLKYWFSVSDEEQERRFIERINTPLKRWKFSPMDLESRQRWAAYSRAKDEMFAYTDTKHCPWWVVPSDDKKRARLNCISHLLSSVEYQEIEHAPITLPEINKQGYVRPPIEDQTFVPQRY,not soluble
7,MGSDKIHHHHHHMWFCFLKSGFIIIKQILSTPFFSYKYNIKILINFKLISNIIEHKMLEYANKITLKGDNIMKFAVITDIHGNFDALQTVLDDIDSRDDIEKIYNLGDNIGIGHETNKVLDTIFDRDDMEMIAGNHDEAIMSLVNGTPYPEDLKGKFYEHHQWIEGHLDESYYDEINQLPRYIEMTIKGKKILFIHYEIENDKMSAPIDEQPFAPITKDDEQAISELFKDKEADLILFGHNHRLHMFDDKSTVYFNPGSVGLNNGSNTVYGIITVNEKGISVERVKLAYNNEEFLAGFEEKQVPAREFIFKNFI,not soluble
8,PTANIMFDRRVVRGNTYAARILPADATQTQTKGPSPASTKKRTTRTLPPRTPEAVDGRRHIDIQTDVYLEELTDTVPEADTSTQTDAFLDRPPTPLFVPQKTGTDAITQIENGDLFDFDFEVEPILEVLVGKVLEQGLMEVLEEEELAAMRAHQEHFEQIRNAELVATQRMEAAERRKLEEKERRMQQERERVERERVVRQKVAASAFARGYLSGIVNTVFDRLVSSGYIYDPVMREVETAFMPWLKEQAIGYLARGVVARRVVDKLVEDAAAALAANRSTLADKAASTAATVDAWAERQAKMEAELQGKELEAVRRRPTFVLRELKPAVASADAVEAAAAELTAQAEEAANAKWEA,not soluble
9,MSFQQPQASPISPGDSGWLIKMRKNRYLDHTSKVNEPKKYRSMDQLPTGKVGAPDNEKSEGTDPLHWQLRKDFHLAKYSERRASYHVESSSYIHSSQQIQHPPQQHHPPPPSPPPVAETIQHQPHPSQQQPSTTTISSRQLYKSQLLYPPGSTENIASEHKPAIRPPEKSVYENNPIAPSELNVQVKRAPPQGPPPPPPPQAPADIDYPERLMSPPPTHQPRSILKGYSSQQYYSQTNLTESHHHQSSQETSLNPQQMHPRPSDRRTPTHFEDLSEDEKTRIMHENLQRHRNMRSGPNGPRPTTTSFNGPFFRLEQVNPGQNQPQQPQYQQHPRSQSVDPSGDMNGGPRPIHQNFSASEIELHHYSRNAEPSVVVWPPVSEKERERPSSVLAKNFNDPERIDEYQRQKRLEYEAIQRTNEKQAVSMAKQVNAMMQQQKLYERSHGMTSPVPIMESISPQPQVSHHHHQPQQHQQHQPQQQYYPSPPPPPQPYRDPEPVFNPVQVYETRPISALSDQIDQPPSQQAPTSWKRTYIVERPRDVAKNEIITSDQLLEKEAYDVDLLKRRETFVEKPEEAPRINRLGRRWQPPPERPYVWPTLRRAMSVEPSSMPVDFAPGVPHNYDDNEEYKWEPVVNDPGYKKEDKNFTPVNSPPASPRRGHGVGPLDEPARRQAKYVIQPSPDGSHRPKAVFRKERHAPSGGFYPHAPNAIKVVKKRAQSVQGLLSPTDNVEVIHQRNYHRLDLEQNGHHGQKLRRSQHGGSEMDLRRSTQEMPDWEKIYELPPHSSQIVQKDMPRHVDVQRRLSKFEGSIQNLRAATSTQHLDSMQQLHFPMPDYEPPQPPQQRRRTESSGYRGGPPPPPPMPQQQPREMSRRNSVASTRIDSPSLMIPHHRQSRSDSRGPPQMSRAASSIPLSPQPTPQHHHHHHSQRPTTPGATRARNYIARATAPSPTPYSYDRARAYVPPALPPGYRLADPIPDQRAMSPSPGHTRKLIRNVSESAQRLHPSGSTPQTSRAPSRHSHRQSPNPRFL,not soluble
10,MFAVDPQMNQTVNSPKGQLLLRTLAMPADTNANGDIFGGWIMSQLDLAGGILAKEISCGRIVTVSVSSITFKKPVKVGDVVCCYGECTKIGRTSMSINLEVWVKPVKEEGVGERFQVCEATFNYVAIDANGRPRAISLSNGSQKSSLEHHHHHH,not soluble
11,MYTYKIGISPEEHDQFVLAQPQAGLLQSSKWGKVKDNWKHERISFYENGVQVAAAACLIRKLPLGFTMIYIPRGPIMDYANFELLDFVIKTLKTFGKSKRALFIKIDPSLVIKQTLEGKESKENDVTLSIIAFLKKLGVEWSGRTKELEDTIQPRIQANIYAKDFDFDSLPKKAKQSIRTATNKGVNVTIGGSELLDDFSALMKKTENRKGIILRGKSYYQKLLGIYAGQSYITMASLDLPEQKKLLIQQLDKALAEQARLTDKSKPSKVAENQKTIARLQKDLTILSEQLATGQTRIPLAATLTLIYGETSENLYAGMDDDYRNYQAPLLTWYETAKEAFKRGCRWHNLGGVENQQDGGLYHFKARLNPTIEEFAGEFNIPVGLVSSLAILTYNLRKKLRSTTNGTN,not soluble
12,RPLQGEATNLTDNTIFRIRQLKGTWNLLIIDSGKCEEYCQEKLYTLRQVRLAQHVDKDKVQRVWLINDDIRPDQETIDKFKGTRLVLANGKDLLKEFPAENKREDHIYVVDPMGNLMMRYPRNADPRKMVGDLKRLLKLSHLEH,not soluble
13,MHHHHHHGSTSLYKKAGSETLYIQGMAEFPASLLILNGKSTDNLPLREAIMLLREEGMTIHVRVTWEKGDAARYVEEARKFGVATVIAGGGDGTINEVSTALIQCEGDDIPALGILPLGTANDFATSVGIPEALDKALKLAIAGDAIAIDMAQVNKQTCFINMATGGFGTRITTETPEKLKAALGSVSYIIHGLMRMDTLQPDRCEIRGENFHWQGDALVIGIGNGRQAGGGQQLCPNALINDGLLQLRIFTGDEILPALVSTLKSDEDNPNIIEGASSWFDIQAPHDITFNLDGEPLSGQNFHIEILPAALRCRLPPDCPLLRSTHHHHHH,soluble
14,MKIIDEHTFEGKGYHPFLITDRWQVAYLNYAEAESLEQIEKLDIHHQTDEVFILLQGKAALIGASVTDQNITYDVVNMQPGIVYNIRREVWHKIAMQPGSQVLIIENNDTHLNDFEFFELTESQKSQLRECVTKIVSLTEN,not soluble
15,MTTETIQSNANLAPLPPHVPEHLVFDFDMYNPSNLSAGVQEAWAVLQESNVPDLVWTRCNGGHWIATRGQLIREAYEDYRHFSSECPFIPREAGEAYDFIPTSMDPPEQRQFRALANQVVGMPVVDKLENRIQELACSLIESLRPQGQCNFTEDYAEPFPIRIFMLLAGLPEEDIPHLKYLTDQMTRPDGSMTFAEAKEALYDYLIPIIEQRRQKPGTDAISIVANGQVNGRPITSDEAKRMCGLLLVGGLDTVVNFLSFSMEFLAKSPEHRQELIERPERIPAACEELLRRFSLVADGRILTSDYEFHGVQLKKGDQILLPQMLSGLDERENACPMHVDFSRQKVSHTTFGHGSHLCLGQHLARREIIVTLKEWLTRIPDFSIAPGAQIQHKSGIVSGVQALPLVWDPATTKAVHHHHHH,soluble
16,MTSLVAYGSDSEGEDDDFFGKPTTEKEETTKNAEKEKEEESEKIAESDEKPTISSFFFSGDDDKAGSSDSDDSEGESVGPKKKRRSGESVTELDKEFTSSIFDNDYAREERMNARMLSRHVDLSDKPSEKERKKSKFTCKNYLKGKCRFGDKCRFSHPVHNRSSDAVNEVSISSEAKFYTTETPEAQVFHSKKFKSSAGQ,not soluble
